Experiment [1] addresses T1, monkey CD3 epsilon/delta expressed on transfected Lenti-X293T cells (cynoCD3epsilon-pcDNA3.1 and … (monkey, UniProt Q95LI5 22-198; Q95LI8 22-171).
T1 construct: whole, on cells
The experiment in a line: flow cytometry on transfected Lenti-X293T cells, hybridoma supernatant. The method, then: Flow cytometry analysis of binding activity to monkey CD3. The monkey CD3 binding specificity of the antibody produced by each hybridoma determined to produce the antibody binding to human CD3 was further confirmed by flow cytometry. Each Lenti-X293T cell suspension was added at a concentration of 100 μL/well to a 96-well U-bottomed microplate and centrifuged to remove a supernatant. The cynoCD3c-pcDNA3.1- and cynoCD3δ-pcDNA3.1-transfected Lenti-X293T cells or the pcDNA3.1-DEST-transfected Lenti-X293T cells were suspended by the addition of the hybridoma culture supernatant and left standing at 4° C. for 1 hour. The cells were washed once with PBS containing 5% FBS, then suspended by the addition of Anti-Rat IgG FITC conjugate diluted 500-fold with PBS containing 5% FBS, and left standing at 4° C. for 30 minutes. The cells were washed twice with PBS containing 5% FBS and then resuspended in PBS containing 5% FBS and 2 μg/ml 7-aminoactinomycin D, followed by detection using a flow cytometer. The data was analyzed using Flowjo. After removal of 7-aminoactinomycin D-positive dead cells by gating, the FITC fluorescence intensity of live cells was plotted to a histogram.
(In flow cytometry, cells or beads pass a laser one at a time.)

Experiment [2] addresses T2, human CD3 epsilon/delta expressed on transfected cells (hCD3epsilon-pcDNA3.1 and hCD3delta-pcDNA3.1 in … (human, UniProt P07766 23-207; P04234 22-171).
T2 construct: whole, on cells
The experiment in a line: cell ELISA and flow cytometry on transfected cells, hybridoma supernatant.

For experiment [3], the target named is T3, cynomolgus monkey CD3 expressed on T cells (cynomolgus pan T cells/PBMC, HSC-F cell line) (cynomolgus monkey, UniProt Q95LI5 22-198).
T3 construct: whole, on cells; On T cells in the CD3 complex with the other subunits; only the epsilon chain is written out; also called cyno CD3; cyno T cells
T3 sequence (Q95LI5 22-198): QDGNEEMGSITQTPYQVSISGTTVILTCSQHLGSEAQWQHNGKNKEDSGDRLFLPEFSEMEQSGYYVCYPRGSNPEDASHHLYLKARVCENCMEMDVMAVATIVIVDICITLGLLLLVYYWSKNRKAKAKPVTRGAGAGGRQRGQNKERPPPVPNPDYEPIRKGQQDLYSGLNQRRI
The experiment in a line: flow cytometry on cynomolgus T cells. The procedure:
Frozen Cynomolgus monkey PBMCs were thawed then washed with RPMI-1640 media. Pan T cells were then isolated from the PBMCs using a negative isolation kit (Miltenyi Biotec, San Diego, Calif.) as per the manufacturer's instructions. The pan T cells were incubated in media alone or media containing serial dilutions of the anti-CD3 scFv-Fc constructs for one hour at 4° C. Commercially available SP34-2 antibody was used as positive controls while untreated cultures were used as negative controls. Following incubation with the anti-CD3 scFv constructs, the cells were washed and stained with a panel of conjugated antibodies specific for CD4, CD8, and IgG-Fc. The samples were acquired on a flow cytometer and analyzed using FlowJo version 10.1 software.

The target in experiment [4] is T4, Recombinant CD3epsilon/delta Fc fusion protein (Sino Biological) (human, UniProt P07766 23-126; P04234 22-105).
T4 construct: Bought reagent; also called recombinant CD3 fusion protein; human CD3 antigen; not shown: Fc of the bought fusion protein; not described
T4 sequence (P07766 23-126, stated change not applied, chain 1 of 2): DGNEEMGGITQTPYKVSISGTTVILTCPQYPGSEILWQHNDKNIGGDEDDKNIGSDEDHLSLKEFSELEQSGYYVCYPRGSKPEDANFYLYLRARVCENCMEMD
T4 sequence (P04234 22-105, stated change not applied, chain 2 of 2): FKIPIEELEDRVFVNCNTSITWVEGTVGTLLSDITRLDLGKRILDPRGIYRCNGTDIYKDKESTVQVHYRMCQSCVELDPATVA
Description: SPR (ProteOn XPR36), CD3epsilon/delta Fc fusion captured on anti-Fc chip, variant injected for 240 s; kinetic constants printed above the sensorgrams. The method, then: (§1) All SPR binding experiments were carried out using a BioRad ProteOn XPR36 instrument (Bio-Rad Laboratories, Hercules, Calif.) at 25° C. with 10 mM HEPES, 150 mM NaCl, 3.4 mM EDTA, and 0.05% Tween 20 at pH 7.4. Recombinant CD3epsilon/delta Fc fusion protein (Sino Biological, Wayne, Pa.) was captured on anti-Fc capture sensorchips. Purified antibodies were indirectly captured on the sensorchip by binding the recombinant CD3 fusion protein when injected at 25 μL/min for 240s (resulting in approx. 500 RUs) following a buffer injection to establish a stable baseline. Resultant KD values were determined from binding isotherms using the Equilibrium Fit model with reported values as the mean of three independent runs.

The target in experiment [5] is T4, Recombinant CD3epsilon/delta Fc fusion …. The experiment in a line: SPR (ProteOn XPR36), Equilibrium Fit, mean of three runs. The method, then:
as §1

In experiment [6] the target is T5, human CD3 expressed on T cells (Jurkat cells, human pan T cells/PBMC) (human, UniProt P07766 23-207).
T5 construct: whole, on cells; On T cells CD3 epsilon stands in the CD3 complex with the gamma, delta and zeta chains and the T-cell receptor; only the epsilon chain is written out; also called CD3+ Jurkat cells; human T cells
T5 sequence (P07766 23-207): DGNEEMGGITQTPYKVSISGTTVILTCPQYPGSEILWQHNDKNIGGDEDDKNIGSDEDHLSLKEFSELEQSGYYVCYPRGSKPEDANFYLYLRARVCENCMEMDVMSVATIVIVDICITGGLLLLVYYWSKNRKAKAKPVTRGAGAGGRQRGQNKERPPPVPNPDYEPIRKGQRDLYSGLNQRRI
Description: flow cytometry on human T cells. The method, then: (§2) Frozen human pan T cells or PBMCs were thawed and incubated with either media or serial dilutions of the anti-CD3 scFv-Fc constructs for one hour at 4° C. Commercially available SP34-2 antibody was used as positive controls while untreated cultures were used as negative controls. Following incubation with the anti-CD3 scFv constructs, the cells were washed and stained with a panel of conjugated antibodies specific for CD4, CD8, and IgG-Fc. The samples were acquired on a flow cytometer and analyzed using FlowJo version 10.1 software.

In experiment [7] the target is T5, human CD3 expressed on T cells (Jurkat …). Description: flow cytometry on human T cells gated CD4+, detection with anti-IgG-Fc, geo MFI. The procedure: as §2
Experiment [8] shares this target. Description: cell ELISA on CD3+ Jurkat cells. The procedure: Cells were centrifuged and seeded in a 96-well filter plate in 50% complete culture medium/50% Blocking buffer. Equal volumes of 2× anti-CD3 scFv-Fc constructs or controls were added to cells and incubated for 1 hour. The plate was washed 4 times using vacuum filtration. An HRP-conjugated anti-human IgG Fc gamma specific secondary antibody was added to the wells and further incubated for 1 hour. The plate is washed 7 times by vacuum filtration followed by the addition of TMB substrate at room temperature. The reaction was stopped by adding 1 M sulfuric acid and supernatant was transferred into a clear 96-well plate. Absorbance (450 nm) was read on a Spectramax 340PC plate reader with path-check correction. Binding of the different scFv-Fc constructs to Jurkat cells and the apparent binding affinities are shown in FIG. 7 and Table 7, respectively.

Data on 2 molecules can be found in patent US20210277118A1 (Daiichi Sankyo, published 2021).

T2 sequence (P07766 23-207, stated change not applied, chain 1 of 2): as the sequence (P07766 23-207) above
T2 sequence (P04234 22-171, stated change not applied, chain 2 of 2): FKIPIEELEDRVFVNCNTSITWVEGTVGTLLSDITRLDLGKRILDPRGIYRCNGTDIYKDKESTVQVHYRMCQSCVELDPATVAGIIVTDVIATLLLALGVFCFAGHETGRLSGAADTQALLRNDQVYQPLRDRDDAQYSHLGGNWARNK
T1 sequence (Q95LI5 22-198, stated change not applied, chain 1 of 2): as the sequence (Q95LI5 22-198) above
T1 sequence (Q95LI8 22-171, stated change not applied, chain 2 of 2): as the sequence (P04234 22-171, stated change not applied, chain 2 of 2) above, with I5V, N15K, I20V, S32T, D33N, I34N, T64A, S74N, V83L, H141R counted along it

B1: rat anti-CD3 monoclonal antibody C3-147 (antibody, rat IgG2b, V domains shown)
VH: EVQLVESGGGLVQPGRALKLSCVVSGVTFNYYGMSWIRQAPGKGLEWVASITNSGGRIYYPDSVKGRFTISRENTQKTLYLQMNSLRSEDTATYYCTLDGRDGWVAYWGQGTLVTVSS
VL: QFVLTQPNSVSTNLGTTVELSCKRNTGNIGSNYVNWYQQHEGRSPTTIIYRDDKRPDGVSDRFSGSIDRSSKSALLTINNVQTEDEADYFCQSYSSGFIFGGGTKLTVL
notes: Rat IgG2b with lambda chains (printed 'X chains'); tested as hybridoma culture supernatant
With B1, the binding result in experiment [1] and in experiment [2] was “binds” throughout.

B2: variant 21831, monovalent anti-CD3 scFv-heterodimeric Fc (VL hC3E-1_1L1d, VH hC3E-1(N53S)) (Fc fusion)
scFv: EVQLVESGGGLVQPGGSLRLSCAASGVTFNYYGMSWIRQAPGKGLEWVASITSSGGRIYYPDSVKGRFTISRENTQKTLYLQMNSLRAEDTAVYYCTLDGRDGWVAYWGQGTLVTVSSGGGGSGGGGSGGGGSQVVLTQPPSASGTPGQRVTISCKRNTGNIGSNYVNWYQQLPGTAPKLLIYRDDKRPDGVPDRFSGSKSGTSASLAISGLQSEDEADYYCQSYSSGFIFGGGTKLTVL
notes: scFv order VH-(GGGGS)3-VL on Fc chain A; chain B is Fc only; also called v21831; not shown: Fc-only chain B is also left out
For B2, the EC50 in experiment [3] came out at 40.7 nM; in experiment [6], 1 nM; in experiment [8], 3.96 nM. In addition, the Kd was determined as 23 nM in experiment [4] and 22.9 nM in experiment [5]. For the same molecule, the koff in experiment [4] stood at 0.0225 s⁻¹. Further, in experiment [4], the kon turned out to be 977000 M⁻¹ s⁻¹. The “EC50 (read off the curve)” value in experiment [7] is about 1 µg/mL.

The term EC50 denotes the concentration giving half of the maximal effect. A word on the Kd: it is a measure of binding affinity in units of concentration. One may read the koff as the first-order rate constant of dissociation. Broadly, the kon is the second-order rate constant of association. As usually defined, the EC50 (read off the curve) is the concentration at which the effect is half-maximal.
